B4: bovine α1-acid glycoprotein (AGP) (natural protein)
chain: QSPECANLMTVAPITNATMDLLSGKWFYIGSAFRNPEYNKSARAIQAAFFYLEPRHAEDKLITREYQTIEDKCVYNCSFIKIYRQNGTLSKVESDREHFVDLLLSKHFRTFMLAASWNGTKNVGVSFYADKPEVTQEQKKEFLDVIKCIGIQESEIIYTDEKKDACGPLEKQHEEERKKETEAS
modifications: glycans that contain both Neu5Ac and Neu5Gc
notes: also called Bovine α1-AGP; bovine AGP

Common to all, as to settings: both partners purified
For test [1], the target named is B4. Description: SPR. For orientation: SPR reads the build-up and loss of mass on a sensor chip optically.
In test [2] the target is B4. Description: SPR; Biacore T100; SubB or SubB mutant immobilised on a series S CM5 chip (flow cell 1 blank); AGP flowed over, 0.01-100 µM in range finding; single cycle kinetics.
Another test addresses T1, SubB ΔS106/ΔT107 (Escherichia coli, UniProt Q6EZC3 24-141, ΔS106/ΔT107).
T1 construct: source: E. coli BL21(DE3), pET-23(+), purified (Ni-NTA)
Description: SPR.

The values that follow come from paper PMC5431456, “Structure aided design of a Neu5Gc specific lectin” (Scientific Reports, 2017).

B1: SubB ΔS106/ΔT107/E108D (natural protein)
chain: EWTGDARDGMFSGVVITQFHTGQIDNKPYFCIEGKQSAGSSISACSMKNSSVWGASFSTLYNQALYFYTTGQPVRIYYKPGVWTYPPFVKALTSNALVGLSTCTTDCFGPDRKKNS
notes: source: E. coli BL21(DE3), pET-23(+), purified (Ni-NTA)
In general, Kd refers to the equilibrium constant for the complex coming apart. Read a low Kd as a tighter complex. B1 yielded a Kd in test [1] of 32.5 ± 2.6 nM.

B2: Subtilase cytotoxin B subunit (SubB), wild type (natural protein)
chain: EWTGDARDGMFSGVVITQFHTGQIDNKPYFCIEGKQSAGSSISACSMKNSSVWGASFSTLYNQALYFYTTGQPVRIYYKPGVWTYPPFVKALTSNALVGLSTCTTSTECFGPDRKKNS
notes: also called Wild type SubB; wild-type SubB; source: E. coli BL21(DE3), pET-23(+), purified (Ni-NTA)
As for B2, the affinity in test [2], expressed as Kd, was 156 ± 22 nM.

B3: SubB S106A/T107A (natural protein)
chain: EWTGDARDGMFSGVVITQFHTGQIDNKPYFCIEGKQSAGSSISACSMKNSSVWGASFSTLYNQALYFYTTGQPVRIYYKPGVWTYPPFVKALTSNALVGLSTCTTAAECFGPDRKKNS
notes: as for B1
As for B3, in test [1], the Kd turned out to be 164 ± 10 nM.
As for B4, the Kd with SubB ΔS106/ΔT107 worked out at 115 ± 37 nM.
